Experimental data as given in US20180333469.
Entries after “also recorded” stand apart in the source; their conditions may differ.

B1: fVIIa/TF enzyme complex (protein)
chain 1: ANAFLEELRPGSLERECKEEQCSFEEAREIFKDAERTKLFWISYSDGDQCASSPCQNGGSCKDQLQSYICFCLPAFEGRNCETHKDDQLICVNENGGCEQYCSDHTGTKRSCRCHEGYSLLADGVSCTPTVEYPCGKIPILEKRNASKPQGRIVGGKVCPKGECPWQVLLLVNGAQLCGGTLINTIWVVSAAHCFDKIKNWRNLIAVLGEHDLSEHDGDEQSRRVAQVIIPSTYVPGTTNHDIALLRLHQPVVLTDHVVPLCLPERTFSERTLAFVRFSLVSGWGQLLDRGATALELMVLNVPRLMTQDCLQQSRKVGDSPNITEYMFCAGYSDGSKDSCKGDSGGPHATHYRGTWYLTGIVSWGQGCATVGHFGVYTRVSQYIEWLQKLMRSEPRPGVLLRAPFP
chain 2: SGTTNTVAAYNLTWKSTNFKTILEWEPKPVNQVYTVQISTKSGDWKSKCFYTTDTECDLTDEIVKDVKQTYLARVFSYPAGNVESTGSAGEPLYENSPEFTPYLETNLGQPTIQSFEQVGTKVNVTVEDERTLVRRNNTFLSLRDVFGKDLIYTLYYWKSSSSGKKTAKTNTNEFLIDVDKGENYCFSVQAVIPSRTVNRKSTDSPVECMGQEKGEFREIFYIIGAVVFVVIILVIILAISLHKCRKAGVGQSWKENSPLNVS
B2: wild-type factor Xa (fXa) (protein)
chain 1: ANSFLEEMKKGHLERECMEETCSYEEAREVFEDSDKTNEFWNKYKDGDQCETSPCQNQGKCKDGLGEYTCTCLEGFEGKNCELFTRKLCSLDNGDCDQFCHEEQNSVVCSCARGYTLADNGKACIPTGPYPCGKQTLER
chain 2: IVGGQECKDGECPWQALLINEENEGFCGGTILSEFYILTAAHCLYQAKRFKVRVGDRNTEQEEGGEAVHEVEVVIKHNRFTKETYDFDIAVLRLKTPITFRMNVAPACLPERDWAESTLMTQKTGIVSGFGRTHEKGRQSTRLKMLEVPYVDRNSCKLSSSFIITQNMFCAGYDTKQEDACQGDSGGPHVTRFKDTYFVTGIVSWGEGCARKGKYGIYTKVTAFLKWIDRSMKTRGLPKAKSHAPEVITSSPLK

Target: tissue factor pathway inhibitor (TFPI), P10646
Sequence (P10646 whole entry, looked up): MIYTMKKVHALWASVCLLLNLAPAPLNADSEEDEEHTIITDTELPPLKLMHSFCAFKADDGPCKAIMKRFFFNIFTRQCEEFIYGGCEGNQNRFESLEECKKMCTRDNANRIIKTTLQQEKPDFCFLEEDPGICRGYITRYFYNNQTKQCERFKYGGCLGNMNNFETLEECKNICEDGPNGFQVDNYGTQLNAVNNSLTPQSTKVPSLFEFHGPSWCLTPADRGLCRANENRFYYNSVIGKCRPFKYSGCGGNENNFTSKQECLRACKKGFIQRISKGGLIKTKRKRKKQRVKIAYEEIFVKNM

Protein	fXa formation from fX (170 nM) by fVIIa/TF, measured by Spectrozyme-Xa cleavage	fXa chromogenic activity (cleavage of Spectrozyme-fXa, 100 µM) after 2 hour incubation
B1	fXa combined with TFPI (included at the physiological concentration of 2.4 nM) and rapidly inhibited fVIIa/TF activity	
B2		For fXa at both 0.5 nM and 1 nM, a 2 nM concentration of TFPI was enough to almost completely inhibit the activity of fXa; also recorded: Such inhibition was also significant when TFPI's concentration was at 1 nM
